Where “and” joins values, the source holds several entries; their conditions need not be identical. Equal values may be shown once. *1 amine or outer side, *2 acyl side, *3 side chain or, on linkers, in order; H or OH if unused. Where a SMILES comes first, the peptide text is derived from it. Bridges are numbered along the chain shown (N, C = ends). Side-chain parts run from the residue outwards. [ ]: non-standard residue; d: D form. The star is where a group is joined. PipA(acetate-DOTA) = (3-(4-piperidinyl)-Ala)-(1,4,7,10-tetraazacyclododecane-1,4,7-triyl)triacetic acid, O=C(O)CN1CCN(CC(=O)O)CCN(CC(=O)N2CCC(C[C@H](N[*:1])C(=O)[*:2])CC2)CCN(CC(=O)O)CC1; PipA(Peg) = 3-(4-piperidinyl)-Ala-(3-hydroxypropanoic acid), O=C(CCO[*:3])N1CCC(C[C@H](N[*:1])C(=O)[*:2])CC1; Ala(1-CH2CO2H-4-piperidyl) = N[C@@H](CC1CCN(CC(=O)O)CC1)C(=O)O; Ala(piperidin-4-yl) = O=C([C@H](CC1CCN([*:3])CC1)N[*:1])[*:2]; DOTA = O=C(O)CN1CCN(CC(=O)O)CCN(CC(=O)*)CCN(CC(=O)O)CC1; PEG8 = NCCOCCOCCOCCOCCOCCOCCOCCOCCC(=O)O; 2Nal = N[C@@H](Cc1ccc2ccccc2c1)C(=O)O; NMetBuAla = CN[C@@H](CC(C)(C)C)C(=O)O; Gly(4-THP) = N[C@H](C(=O)O)C1CCOCC1; Ile(3-Me) = CCC(C)(C)[C@H](N)C(=O)O; tBuAla = CC(C)(C)C[C@H](N)C(=O)O; Cha = N[C@@H](CC1CCCCC1)C(=O)O; Chg = N[C@H](C(=O)O)C1CCCCC1; NMeNle = CCCC[C@H](NC)C(=O)O; Tle = CC(C)(C)[C@H](N)C(=O)O; plPh = not defined here; CH2 = C([*:1])[*:2]
T1: DLL3 (Homo sapiens, UniProt Q9NYJ7)
T1 sequence (Q9NYJ7 27-618): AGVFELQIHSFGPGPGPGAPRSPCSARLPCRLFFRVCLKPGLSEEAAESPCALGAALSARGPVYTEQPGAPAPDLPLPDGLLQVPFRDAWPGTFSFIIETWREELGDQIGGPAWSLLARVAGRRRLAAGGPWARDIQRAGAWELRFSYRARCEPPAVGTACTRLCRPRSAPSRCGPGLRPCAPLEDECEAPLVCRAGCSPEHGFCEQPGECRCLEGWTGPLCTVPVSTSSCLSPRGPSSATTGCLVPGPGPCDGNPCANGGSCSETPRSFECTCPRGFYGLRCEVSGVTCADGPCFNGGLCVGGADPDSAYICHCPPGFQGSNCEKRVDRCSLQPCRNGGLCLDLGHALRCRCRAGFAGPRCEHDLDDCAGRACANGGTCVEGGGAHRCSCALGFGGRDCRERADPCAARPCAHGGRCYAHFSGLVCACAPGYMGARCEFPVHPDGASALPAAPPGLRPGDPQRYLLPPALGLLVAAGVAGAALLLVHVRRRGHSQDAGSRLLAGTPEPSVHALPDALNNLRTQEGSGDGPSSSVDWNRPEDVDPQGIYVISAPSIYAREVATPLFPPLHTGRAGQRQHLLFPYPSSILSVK

T2: DLL3 on CT26.DLL3 cells (Homo sapiens (Human), UniProt Q9NYJ7 27-618)
T2 construct: CT26.DLL3 are engineered cells to express DLL3
T2 sequence: T1 sequence (Q9NYJ7 27-618)

T3: DLL3 on SHP-77 cells (human, UniProt Q9NYJ7 27-618)
T3 construct: SHP-77 cells are human-derived, non-engineered SCLC cells
T3 sequence: T1 sequence (Q9NYJ7 27-618)

B1: Cpd No. 320 (peptide)
peptide: Ac-WT[NMeNle]CNN[2Nal]K(DOTA)DCWP-NH2
modifications: disulfide 4-10
B2: Cpd No. 249 (peptide)
peptide: Ac-WTICK(DOTA)N[2Nal]HDCWP-NH2
modifications: disulfide 4-10
SMILES: CC[C@H](C)[C@H](NC(=O)[C@@H](NC(=O)[C@H](Cc1c[nH]c2ccccc12)NC(C)=O)[C@@H](C)O)C(=O)N[C@H]1CSSC[C@@H](C(=O)N[C@@H](Cc2c[nH]c3ccccc23)C(=O)N2CCC[C@H]2C(N)=O)NC(=O)[C@H](CC(=O)O)NC(=O)[C@H](Cc2c[nH]cn2)NC(=O)[C@H](Cc2ccc3ccccc3c2)NC(=O)[C@H](CC(N)=O)NC(=O)[C@H](CCCCNC(=O)CN2CCN(CC(=O)O)CCN(CC(=O)O)CCN(CC(=O)O)CC2)NC1=O
notes: also called compound 249
B3: Cpd No. 449 (peptide)
peptide: Ac-WT[NMetBuAla]C[PipA(acetate-DOTA)]N[2Nal]K(DOTA)DCWP-NH2
modifications: linker 4-10 via CH2
B4: Cpd No. 301 (peptide)
peptide: Ac-WT[Tle]C[Ala(piperidin-4-yl)]N[2Nal]K(DOTA)DCWP-NH2
modifications: disulfide 4-10
B5: Cpd No. 153 (peptide)
peptide: Ac-WT[NMetBuAla]C[Ala(piperidin-4-yl)]N[2Nal]K(DOTA)DCWP-NH2
modifications: bridge 4-10; not fully specified (bridges)
B6: Cpd No. 316 (peptide)
peptide: Ac-WT[tBuAla]CNN[2Nal]K(DOTA)DCWP-NH2
modifications: disulfide 4-10
B7: Cpd No. 417 (peptide)
peptide: Ac-WT[Chg]C[Ala(piperidin-4-yl)]N[2Nal]K(DOTA)DCWP[dK]([PEG8-plPh])-NH2
modifications: bridge 4-10; not fully specified (bridges); reading uncertain; also: bridge 4-10: thioacetal per mods, disulfide
B8: Cpd No. 321 (peptide)
peptide: Ac-WT[Ile(3-Me)]CNN[2Nal]K(DOTA)DCWP-NH2
modifications: disulfide 4-10
B9: Cpd No. 315 (peptide)
peptide: Ac-WT[Tle]CNN[2Nal]K(DOTA)DCWP-NH2
modifications: disulfide 4-10
SMILES: CC(=O)N[C@@H](Cc1c[nH]c2ccccc12)C(=O)N[C@H](C(=O)N[C@H](C(=O)N[C@H]1CSSC[C@@H](C(=O)N[C@@H](Cc2c[nH]c3ccccc23)C(=O)N2CCC[C@H]2C(N)=O)NC(=O)[C@H](CC(=O)O)NC(=O)[C@H](CCCCNC(=O)CN2CCN(CC(=O)O)CCN(CC(=O)O)CCN(CC(=O)O)CC2)NC(=O)[C@H](Cc2ccc3ccccc3c2)NC(=O)[C@H](CC(N)=O)NC(=O)[C@H](CC(N)=O)NC1=O)C(C)(C)C)[C@@H](C)O
B10: Cpd No. 447 (peptide)
peptide: Ac-WT[NMetBuAla]C[Ala(1-CH2CO2H-4-piperidyl)]N[2Nal]K(DOTA)DCWP-NH2
modifications: linker 4-10 via CH2
B11: Cpd No. 300 (peptide)
peptide: Ac-WT[NMeNle]C[Ala(piperidin-4-yl)]N[2Nal]K(DOTA)DCWP-NH2
modifications: disulfide 4-10
B12: Cpd No. 318 (peptide)
peptide: Ac-WT[Chg]CNN[2Nal]K(DOTA)DCWP-NH2
modifications: disulfide 4-10
B13: Cpd No. 445 (peptide)
peptide: Ac-WT[NMetBuAla]C[Ala(piperidin-4-yl)]N[2Nal]K(DOTA)DCWP[dK]-NH2
modifications: bridge 4-10; not fully specified (residue 13)
B14: Cpd No. 448 (peptide)
peptide: Ac-WT[NMetBuAla]C[PipA(Peg)]N[2Nal]K(DOTA)DCWP-NH2
modifications: linker 4-10 via CH2
B15: Cpd No. 317 (peptide)
peptide: Ac-WT[Gly(4-THP)]CNN[2Nal]K(DOTA)DCWP-NH2
modifications: disulfide 4-10
SMILES: CC(=O)N[C@@H](Cc1c[nH]c2ccccc12)C(=O)N[C@H](C(=O)N[C@H](C(=O)N[C@H]1CSSC[C@@H](C(=O)N[C@@H](Cc2c[nH]c3ccccc23)C(=O)N2CCC[C@H]2C(N)=O)NC(=O)[C@H](CC(=O)O)NC(=O)[C@H](CCCCNC(=O)CN2CCN(CC(=O)O)CCN(CC(=O)O)CCN(CC(=O)O)CC2)NC(=O)[C@H](Cc2ccc3ccccc3c2)NC(=O)[C@H](CC(N)=O)NC(=O)[C@H](CC(N)=O)NC1=O)C1CCOCC1)[C@@H](C)O
B16: Cpd No. 442 (peptide)
peptide: Ac-WT[NMetBuAla]C[Ala(piperidin-4-yl)]N[2Nal]K(DOTA)DCWP-OH
modifications: linker 4-10 via CH2

Legend:
[1] = system: CT26.DLL3 cells; experiment: Internalization of [177Lu]Lu-labeled peptide, CT26.DLL3 cells; type: cell-based; details: 1 h, 37° C.
Summary of the method: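 [177Lu]Lu-chelator-peptides labelled at pH ~5, 80 °C, checked by RP-HPLC, formulated in 1% PBSA. Detached cells (5-25 million/condition) counted as bound fraction, stripped twice with 50 mM glycine pH 2.5 for 3 min, lysed in 0.3 M NaOH and gamma-counted as internalized fraction; values binned as ≤25, 25-50, >50 %.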

[2] = system: SHP-77 cells; experiment: Internalization of [177Lu]Lu-labeled peptide, SHP-77 cells; type: cell-based; details: 1 h, 37° C.
[3] = system: nude mice bearing SHP-77 tumors; experiment: Ex vivo biodistribution of radiolabeled peptides (% IA/g) in nude mice bearing SHP-77 tumors; details: [177Lu]Lu labelling, 24 hours post-injection, intravenous
Summary of the method: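 [177Lu]Lu-peptides were given as an IV tail-vein bolus once tumors reached 200-400 mm^3. Injected activity was set per mouse from syringe dose-calibrator readings. At set time points, tissues were weighed and gamma-counted, and counts were decay-corrected to injection and expressed as % IA/g.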

[4] = system: SHP-77 cells; experiment: Cell binding (total uptake) of [177Lu]Lu-labeled peptide, SHP-77 cells; type: cell-based; details: 1 h, 37° C.
[5] = system: CT26.DLL3 cells; experiment: Cell binding (total uptake) of [177Lu]Lu-labeled peptide, CT26.DLL3 cells; type: cell-based; details: 1 h, 37° C.
Summary of the method: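 [177Lu]Lu-labelled peptide was prepared at pH ~5 and 80 °C, with purity checked by RP-HPLC, then formulated in 1% PBSA. CT26.DLL3 cells (5-25 million per condition) were incubated with 0.8 μCi for 1 h at 37 °C. After cold PBS/BSA washes, bound and unbound fractions were gamma-counted and uptake was reported as a percentage band.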

[6] = target: T1, DLL3; experiment: SPR KD, biotinylated human DLL3 on streptavidin chip (Table 8); parameters: biotin (biotinylated); details: biotinylated human DLL3 on streptavidin sensor chip, 25° C., 1:1 binding model; read-out: SPR KD
From the text: Biotinylated target ligand human DLL3 was immobilized on a streptavidin sensor chip. A reference surface was set up for nonspecific binding and refractive index changes. […] Sensorgram curves were fitted with 1:1 binding model, and affinity and kinetic parameters were obtained using Biacore Insight evaluation 4.0. software.

[7] = target: T2, DLL3 on CT26.DLL3 cells; experiment: [177Lu]Lu-labelled peptide on CT26.DLL3 cells, 1 h 37 C, gamma counter; A = %<=25
Procedure: (§1) Adherent cell studies: The cells were cultured in appropriate culture media (20 mL) in tissue culture treated T150 flasks at 37° C. and 5% C02. Adherent cells were detached (60-70% confluent) using 5 mL Versene at 37° C. for 3 minutes. After confirming the viability using countess and count of detached cells using Trypan blue, the cells were centrifuged at 4° C. for 5 minutes (1,000 rpm). The cell pellet obtained was washed once with PBS and resuspended in 1% PBSA to obtain the desired cell concentration (5-25 million cells/mL).
(§2) Total uptake: Cells were incubated with 300 μL (0.8 μCi) of the incubation buffer (containing radiolabeled peptide [¹⁷⁷Lu]Lu-test peptide) for 1 hour at 37° C. (Table 10). Post incubation, the cells were pelleted and washed 2 times using cold PBS+1% BSA. The supernatant and washes were combined and counted together as “unbound fraction” in a gamma counter. The cells were then resuspended in 300 μL of 1% PBS+1% BSA and counted in the gamma counter as “bound fraction”.

[8] = target: T3, DLL3 on SHP-77 cells; experiment: [177Lu]Lu-labelled peptide on SHP-77 cells, 1 h 37 C, gamma counter; A = %<=25
Procedure: as §1, §2

[9] = target: T3, DLL3 on SHP-77 cells; experiment: [177Lu]Lu-labelled peptide on SHP-77 cells, 1 h 37 C, gamma counter; C = %>50
[10] = target: DLL3 on CT26.DLL3 cells (Homo sapiens (Human)) (UniProt Q9NYJ7); experiment: [177Lu]Lu-labelled peptide on CT26.DLL3 cells, 1 h 37 C, gamma counter; B = 25<%<=50

Row | Molecule | % Binding [7] [%] | % Binding [9] [%] | further results
1 | CC(=O)N[C@@H](Cc1c[nH]c2ccccc12)C(=O)N[C@H](C(=O)N[C@@H](CC1CCCCC1)C(=O)N[C@H]1CSSC[C@@H](C(=O)N[C@@H](Cc2c[nH]c3ccccc23)C(=O)N2CCC[C@H]2C(N)=O)NC(=O)[C@H](CC(=O)O)NC(=O)[C@H](CCCCNC(=O)CN2CCN(CC(=O)O)CCN(CC(=O)O)CCN(CC(=O)O)CC2)NC(=O)[C@H](Cc2ccc3ccccc3c2)NC(=O)[C@H](CC(N)=O)NC(=O)[C@H](CC(N)=O)NC1=O)[C@@H](C)O [compound 323, Ac-W-T-(CHA)-C(3)-N-N-(2Nal)-Lys(DOTA)-D-C(3)-W-P-CONH2] (Ac-WT[Cha]CNN[2Nal]K(DOTA)DCWP-NH2; disulfide 4-10) |  |  | % Internalization (out of bound fraction) [1]: C (% >50); % Internalization (out of bound fraction) [2]: B (25 <% ≤50); kidney uptake (% IA/g) [3]: D (“D” represents % IA/g > 10 in kidney); tumor uptake (% IA/g) [3]: A (“A” represents 0 < % IA/g ≤ 5 in tumor); % Binding [4]: A (% s ≤25); % Binding [5]: A (% s ≤25); Kd [6]: < 1 nM
2 | B1 | ≤ 25 |  | % Binding [8]: ≤ 25%
3 | B2 | ≤ 25 |  | % Binding [8]: ≤ 25%
4 | B3 |  | > 50 | 
5 | B4 |  |  | % Binding [10]: > 25% and < 50%
6 | B5 |  | > 50 | 
7 | B6 | ≤ 25 |  | 
8 | B7 |  |  | % Binding [10]: > 25% and < 50%
9 | B8 | ≤ 25 |  | 
10 | B9 | ≤ 25 |  | 
11 | B10 |  | > 50 | 
12 | B11 |  |  | % Binding [10]: > 25% and < 50%
13 | B12 | ≤ 25 |  | 
14 | B13 |  | > 50 | 
15 | B14 |  | > 50 | 
16 | B15 | ≤ 25 |  | % Binding [8]: ≤ 25%
17 | B16 |  | > 50 | 
